Assay results: PMC7148561
Several values for one entry are separate records, joined by “and”; a condition that tells them apart may be missing. Equal values may be shown once.

Columns and labels:
[1] = target: the two labeling variants of hHsp70 in the ATP-bound state (direct binding of JGF); assay: FRET or BRET
[2] = target: hHsp70 (human Hsp70A1), variant not told for the experiment (human) (UniProt P0DMV8); assay: SEC
[3] = target: Cy3-labeled hHsp70 (E315C/I427C or I427C/K559C; variant not told for the printed rate); assay: FRET or BRET
[4] = target: hHsp70 NBD–SBDβ labeling variant E315C/I427C (human) (UniProt P0DMV8); assay: FRET or BRET
[5] = target: the two labeling variants of hHsp70 containing the T204A mutation; assay: FRET or BRET

Substance | apparent rate constant of direct binding [1] | stoichiometry N (hHsp70 molecules per Hdj1 dimer) [2] | apparent rate constant of the fast binding phase [3] [s⁻¹] | kon [4] [M⁻¹ s⁻¹] | rate constant of direct binding [5]
J+G/F-rich segment (JGF) of Hdj1, residues 1–141 (from UniProt P25685 1-141) (domain or fragment) | 0.7 s⁻¹ and 1.6 s⁻¹ | – | – | – | –
Hdj1, human type II Hsp40 homolog, full-length (from UniProt P25685 1-340) (natural protein) | – | 2 | 1.2 | 350000 | 2.5 s⁻¹ and 1.5 s⁻¹
